Numbering of substitutions follows the chain as printed.
T1: CD73-expressing human AML-OCI3 cells (Homo sapiens, UniProt P21589)
T1 construct: CD73-expressing human AML-OCI3 cells (AML cell line); endogenous in cells; host or cells: OCI-AML3 human AML cell line
T1 sequence (P21589 27-549): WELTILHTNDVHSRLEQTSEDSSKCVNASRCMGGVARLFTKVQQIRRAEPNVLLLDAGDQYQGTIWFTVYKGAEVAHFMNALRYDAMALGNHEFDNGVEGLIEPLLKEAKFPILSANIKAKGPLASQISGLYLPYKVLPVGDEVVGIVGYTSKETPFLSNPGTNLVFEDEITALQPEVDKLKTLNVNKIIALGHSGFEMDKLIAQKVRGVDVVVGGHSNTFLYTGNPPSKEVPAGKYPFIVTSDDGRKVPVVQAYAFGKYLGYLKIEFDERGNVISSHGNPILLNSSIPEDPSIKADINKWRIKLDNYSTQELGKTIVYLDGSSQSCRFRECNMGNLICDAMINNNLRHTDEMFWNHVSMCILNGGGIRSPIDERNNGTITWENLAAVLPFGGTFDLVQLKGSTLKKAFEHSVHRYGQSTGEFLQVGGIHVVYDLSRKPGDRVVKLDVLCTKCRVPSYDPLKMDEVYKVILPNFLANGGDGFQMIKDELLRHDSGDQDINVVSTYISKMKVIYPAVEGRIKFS

T2: soluble human CD73 (Homo sapiens, UniProt P21589)
T2 construct: The ectodomain of CD73 (aa 27-549) was expressed as a recombinant protein with a C-terminal His6× tag; His6 (C); made in house; host or cells: transiently transfected HEK cells
T2 sequence (P21589 27-549): T1 sequence (P21589 27-549)

T3: human CD73-transfected HEK cells (Homo sapiens, UniProt P21589)
T3 construct: expressed in transfected cells; stably transfected in method 5.1)
T3 sequence (P21589 27-549): T1 sequence (P21589 27-549)

T4: human CD73 (Homo sapiens, UniProt P21589)
T4 construct: expressed in transfected cells; stably transfected in method 5.1)
T4 sequence (P21589 27-549): T1 sequence (P21589 27-549)

B1: SB143: CD73-specific alpaca VHH clone, family 4 in Tables 1-3, SEQ ID NO:69; tested as rabbit or human IgG hcAb (antibody)
heavy: QVQLVESGGGLVQAGGSLRLSCAASGRTFSRSTMGWFRQAPGKERVFVAAIRWIGGTTTYGDSVKGRFTISVDNAKNTLYLQMNSLKPEDTAVYYCAATAGGPYYLGGRDILYDYWGQGTQVTVSS
modifications: left off: a dimerising Fc or GST
notes: tested as rabbit or human IgG hcAb
B2: SB144: CD73-specific alpaca VHH clone, family 4 in Tables 1-2, SEQ ID NO:70; tested as rabbit IgG hcAb (antibody)
heavy: B1 heavy with R31G, V46A, T58A, T59K, V72I, Y104D, L112V
modifications: left off: a dimerising Fc or GST
notes: tested as rabbit IgG hcAb
B3: SB141: CD73-specific alpaca VHH clone, family 2 in Tables 2-3, SEQ ID NO:72; tested as rabbit or human IgG hcAb (antibody)
heavy: QVQLVESGGGLVQPGGSLRLSCAASGFTFINYHMSWLRQAPGKGLEWVSEIHSRGDITSYTNSVKGRFTISRDNAKNTLYLQMNSLKFDDTAVYYCARSRDLFNEGEYDYWGRGTQVTVSS
modifications: left off: a dimerising Fc or GST
notes: as for B1
B4: SB121: CD73-specific alpaca VHH clone, family 5, SEQ ID NO:82; tested as rabbit or human IgG hcAb (antibody)
heavy: QVQLQESGGGLVQAGGSLRLSCAASGSIGSIIAMGWYRQGPGKQRELVARMFTDDGSTNYDDSVKGRFTISRDSAGTTVYLQMNSLKPEDTAVYYCNAQRRWNAYWGPGTQVTVSS
modifications: left off: a dimerising Fc or GST
notes: as for B1
B5: SB139: CD73-specific alpaca VHH clone, family 6, SEQ ID NO:83; tested as rabbit or human IgG hcAb (antibody)
heavy: QVQLQESGGGLVQAGGSLRLSCAASENIFNIYGMGWYRQAPGKLRDLVAKITSGGRTTYADSVKGRFTISGDNAKNTVYLQMNSLKPEDTAVYYCNSYYYWGQGTQVTVSS
modifications: left off: a dimerising Fc or GST
notes: as for B1
B6: SB116: CD73-specific alpaca VHH clone, family 3, SEQ ID NO:81; tested as rabbit or human IgG hcAb (antibody)
heavy: QVKLQESGGGRVQTGGSLRLSCAASGISFSITTMYWYRQAPGEQRQLVALITDRGNTYYVDSVKGRFTISRDDSKNTVYLQMNDLKPEDTAVYFCNSIPGNDWGQGTQVTVSS
modifications: left off: a dimerising Fc or GST
notes: as for B1

What follows are molecules tested against T1, CD73-expressing human AML-OCI3 cells (assay: AMP degradation by cell bound CD73, luminometric AMPglow assay). Conditions: AML-OCI3 cells; 10 μl supernatant of single clone or 5+5 μl of two clones.
Type: cell-based
Experimental: AMP was added and AMP degradation was measured using the luminometric AMPglow assay. Data analyses were performed using Prism (Graphpad).
Soluble recombinant human CD73 or CD73-expressing human […] cells were incubated with CD73-specific dimeric clones SB116-rbFc, SB188-rbFc, biparatopic SB116-188-Alb trimers or with non-binding L-10e-rbFc clone (control). AMP was added and AMP degradation was measured using the luminometric AMPglow assay. Data analyses were performed using Prism (Graphpad).

inhibition of AMP degradation | Molecule
pronounced inhibition of AMP degradation | B1
pronounced inhibition of AMP degradation | B2

These molecules were tested against T2, soluble human CD73 (assay: Off-rates of soluble CD73 from immobilized Nb-rbIgG hcAb on Octet BLI). Conditions: soluble human CD73 ectodomain 200 ng/μl as analyte; Nb-rbIgG hcAb immobilized on protein A biosensor.
Type: binding
Experimental: The binding off-rate constants of bivalent hcAbs to human and mouse CD73 protein were determined by […] kinetic analysis on Octet RED96 (ForteBio). Immobilization of rabbit IgG hcAbs on the protein A-biosensor surface was done in HEK-6E cell supernatant, and regeneration of analytes was done with 100 mM Glycin pH=2.5. Recombinant mouse or human CD73 ectodomain was used as analytes and tested at a saturating dose of 200 ng/μl. Sensorgrams were fitted using least square regression in association than dissociation Model in Prism8 (Graphpad).

Kdis [s⁻¹] | Molecule
0.00045 | B3
0.0013 | B1
0.00023 | B2
0.022 | B4
0.046 | B5
0.00017 | B6

These molecules were tested against T3, human CD73-transfected HEK cells (assay: Epitope binning by flow cytometry (human IgG hcAb blocks rabbit IgG hcAb)). Conditions: epitope assignment on human CD73 from binning.
Type: binding
Experimental: (§1) • 5.1 Untransfected HEK293 cells and HEK293 cells stably transfected with human or mouse CD73 were incubated for 30 min with HEK-6E cell supernatants containing rabbit IgG hcAbs (diluted 1:10 in PBS/0.1% BSA). Following washing with PBS/0.1% BSA, bound antibodies were detected with PE-conjugated goat anti-rabbit IgG polyclonal antibody (711-116-152 Dianova, Hamburg). • 5.2 For dissociation analyses, two separate aliquots of CD73-transfected cells were incubated either with Cell Proliferation Dye eFluor 450 (eBioscience) or with hcAbs for 20 min at RT. Cells were washed four times, mixed at a 1:1 ratio and further incubated at RT for 120 min before staining of bound antibodies with PE-conjugated goat anti-rabbit IgG polyclonal antibody. The dissociation of hcAbs from the target cells and association with the eFluor 450 labeled cells was analyzed by flow cytometry using the FlowJo software (Treestar). • 5.3 For epitope analyses, cells were preincubated with excess human IgG hcAbs (10 μl HEK-6E cell supernatant/100 μl PBS/0.1% BSA) for 30 min at RT before addition of Nb-rabbit IgG hcAbs (1 μl HEK-6E cell supernatant/100 μl PBS/0.1% BSA) and further incubation for 20 min at RT and staining with PE-conjugated anti-rabbit polyclonal antibody (711-116-152 Dianova, Hamburg). Cells were washed and analyzed by flow cytometry on a BD-FACS Canto. Data were analyzed using the FlowJo software (Treestar).
To evaluate the epitopes on the CD73 protein recognized by different VHHs, representative rabbit IgG hcAbs were binned against a set of human IgG hcAbs, and bound hcAbs were detected with a PE-conjugated anti-rabbit IgG secondary antibody. Cells were pre-incubated with excess human IgG hcAbs for […] at RT to block specific epitopes before addition of rabbit IgG hcAbs as detectors and further incubation for 15 min at RT. Cells were washed, and bound antibodies were detected with PE-conjugated anti-rabbit IgG polyclonal antibody. Cells were washed and analyzed by flow cytometry on a BD-FACS Canto. Data were analyzed using the FlowJo software (Treestar). Lack of blockade by a non-binding control human IgG hcAb served as negative control (unblocked), and blockade of binding with the same VHH carrying human IgG hcAb as the rabbit IgG hcAb used for detection served as positive controls for blocking. Values for blocking were determined by comparing the mean fluorescence intensities (MFIs) of PE staining of transfected cells for unblocked vs blocked rabbit hcAbs using the formula: inhibition (%)=100−(MFI (blocked)/MFI MFI(unblocked)*100). The values were rounded to whole percentages.

Epitope | Molecule
2 | B3
1 | B1
4 | B4
1 | B6

These molecules were tested against T4, human CD73 (assay: Flow cytometry binding of rabbit IgG hcAbs to human CD73-transfected HEK cells). Conditions: family representative clone; h = binds human CD73, m = binds mouse CD73.
Experimental: HEK cells were co-transfected with expression vectors for green fluorescent protein (GFP) and human CD73, mouse CD73, and a control cell surface protein (CD39). 48 h after transfection, cells were incubated with HEK cell supernatants containing the indicated rabbit IgG hcAbs. Bound antibodies were detected with PE-conjugated anti rabbit IgG secondary antibody.
as §1
The binding specificities of the purified hcAbs were determined by flow cytometry using HEK cells transiently co-transfected with expression vectors for GFP and either mouse CD73, human CD73 or a control protein (CD39). 1×10^6 cells were incubated with 10 μl of the Nb-rbIgG hcAb containing HEK-6E cell supernatants for 30 min at 4° C. After washing, the cells were incubated with PE-conjugated anti-rabbit IgG polyclonal antibody (711-116-152 Dianova, Hamburg) and washed twice. The cells were resuspended in PBS and analyzed by flow cytometry on FACS Canto or FACS Celesta (BD Biosciences, Heidelberg). Data evaluation was conducted using the software FlowJo (Treestar, Stanford, US).

specificity | Molecule
h + m | B2
h + m | B4
h + m | B5
h + m | B6

These molecules were tested against T2, soluble human CD73 (assay: AMP hydrolysis by soluble CD73, DPEA-Napht-Azide fluorescence assay). Conditions: 50 ng CD73, 30 min pre-incubation with 10 μl hcAb supernatant, 1 mM AMP.
Type: biochemical
Experimental: Recombinant human CD73 (50 ng) was pre-incubated for 30 min with hcAbs at RT in 96 well plates before addition of AMP and DPEA-Napht-Azide. Fluorescence signals were detected every 50 seconds for 30 repeats. ARFU values (>10^3/min) were calculated for a 10 min interval during the linear phase (from 5 min to 15 min) using Prism software (Graphpad). A non-specific rabbit IgG hcAb was used as control.
• 4.1 CD73 catalyzes the hydrolysis of AMP to adenosine. This reaction can be monitored by the shift in fluorescence intensity of DPEA-Napht-Azide. This property was used to determine whether hcAbs could interfere with the enzymatic activity of CD73. Soluble recombinant human CD73 (50 ng) was pre-incubated for 30 min with Nbs or hcAbs (10 μl HEK-6E cell supernatant containing 10-100 μg/ml hcAb) at RT in 96 well plates before addition of AMP (Sigma) to a final concentration of 1 mM and of DPEA-Napht-Azide to a final concentration of 50 μM. • 4.2 Fluorescence signals were recorded in white Nunc MicroWell plates (Nunc, 136101) on a Victor III plate reader (Perkin Elmer) (Exicitation filter: F485, Emission Filter: F535; CW-Lamp energy: 40000, counting time: 0.1 s). Data analyses were performed using Prism (Graphpad).
Soluble recombinant human CD73 (50 ng) was pre-incubated for 30 min with CD73-specific hcAbs or an irrelevant control hcAb (10 μl HEK-6E cell supernatant) at RT in 96 well plates before addition of AMP (Sigma) to a final concentration of 1 mM and of DPEA-Napht-Azide to a final concentration of 50 μM. Fluorescence signals were detected every 50 seconds for 30 repeats. Data analyses were performed using Prism (Graphpad).

Molecule | effect on hydrolysis of AMP by soluble CD73
B3 | did not
B1 | inhibited CD73 catalyzed hydrolysis of AMP
B2 | inhibited CD73 catalyzed hydrolysis of AMP
B6 | effectively blocked hydrolysis of AMP
